Test results reported in patent US20240116985A1 (published 2024).
Starred links: 1 amine or outer side, 2 acyl side, 3 side chain; linkers in the order of their positions; H or OH if unused. Positions of bridges follow the written chain, without caps; N, C: chain ends. Non-standard residues stand in square brackets, D forms with d. Primed or numbered codes have the meaning given here. (4CF3PhAc)GA = (S)-2-amino-3-(N-(carboxymethyl)-2-(4-(trifluoromethyl)phenyl)acetamido)propanoic acid, O=C(Cc1ccc(C(F)(F)F)cc1)N(CC(=O)[*:3])C[C@H](N[*:1])C(=O)[*:2]; (PfPhAc)GA = (S)-2-amino-3-(N-(carboxymethyl)-2-(perfluorophenyl)acetamido)propanoic acid, O=C(Cc1c(F)c(F)c(F)c(F)c1F)N(CC(=O)[*:3])C[C@H](N[*:1])C(=O)[*:2]; (MePipAc)GA = (S)-2-amino-3-(N-(carboxymethyl)-2-(4-methylpiperazin-1-yl)acetamido)propanoic acid, CN1CCN(CC(=O)N(CC(=O)[*:3])C[C@H](N[*:1])C(=O)[*:2])CC1; (4AcMePip)GA = (S)-2-amino-3-(N-(carboxymethyl)-1-methylpiperidine-4-carboxamido)propanoic acid, CN1CCC(C(=O)N(CC(=O)[*:3])C[C@H](N[*:1])C(=O)[*:2])CC1; (NdiMeButC)GAbu = (S)-2-amino-4-(N-(carboxymethyl)-4-(dimethylamino)butanamido)butanoic acid, CN(C)CCCC(=O)N(CC[C@H](N[*:1])C(=O)[*:2])CC(=O)[*:3]; PyrS2″ = (S)-3-amino-1-((pent-4-en-1-yloxy)carbonyl)pyrrolidine-3-carboxylic acid (stapling residue), C=CCCCOC(=O)N1CC[C@@](N[*:1])(C(=O)[*:2])C1; (NdiMeButC)GA = (S)-2-amino-3-(N-(carboxymethyl)-4-(dimethylamino)butanamido)propanoic acid, CN(C)CCCC(=O)N(CC(=O)[*:3])C[C@H](N[*:1])C(=O)[*:2]; (MorphAc)GA = (S)-2-amino-3-(N-(carboxymethyl)-2-morpholinoacetamido)propanoic acid, O=C(CN1CCOCC1)N(CC(=O)[*:3])C[C@H](N[*:1])C(=O)[*:2]; PyrS2 = (S)-3-amino-1-((pent-4-en-1-yloxy)carbonyl)pyrrolidine-3-carboxylic acid, C=CCCCOC(=O)N1CC[C@@](N[*:1])(C(=O)[*:2])C1; (Pic)GA = (S)-2-amino-3-(N-(carboxymethyl)picolinamido)propanoic acid, O=C(c1ccccn1)N(CC(=O)[*:3])C[C@H](N[*:1])C(=O)[*:2]; B5(22) = 2-amino-2-(pent-4-en-1-yl)hept-6-enoic acid (two alkene side chains), C=CCCCC(CCCC=C)(N[*:1])C(=O)[*:2]; B5(3) = 2,2-bis(4-pentenyl)glycine (stitching residue), C=CCCCC(CCCC=C)(N[*:1])C(=O)[*:2]; Phe(3-COOH) = N[C@@H](Cc1cccc(C(=O)O)c1)C(=O)O; 2F3MeF = Cc1cccc(C[C@H](N[*:1])C(=O)[*:2])c1F; Phe(3-Cl) = N[C@@H](Cc1cccc(Cl)c1)C(=O)O; Phe(4-Cl) = N[C@@H](Cc1ccc(Cl)cc1)C(=O)O; Bta = N[C@@H](Cc1csc2ccccc12)C(=O)O; αAllylPro = C=CC[C@@]1(C(=O)O)CCCN1; tBuAla = CC(C)(C)C[C@H](N)C(=O)O; 3Thi = N[C@@H](Cc1ccsc1)C(=O)O; PyrS2(4) = not defined here

T1: B-cat-Halo (UniProt P35222 1-781)
T1 sequence (looked up): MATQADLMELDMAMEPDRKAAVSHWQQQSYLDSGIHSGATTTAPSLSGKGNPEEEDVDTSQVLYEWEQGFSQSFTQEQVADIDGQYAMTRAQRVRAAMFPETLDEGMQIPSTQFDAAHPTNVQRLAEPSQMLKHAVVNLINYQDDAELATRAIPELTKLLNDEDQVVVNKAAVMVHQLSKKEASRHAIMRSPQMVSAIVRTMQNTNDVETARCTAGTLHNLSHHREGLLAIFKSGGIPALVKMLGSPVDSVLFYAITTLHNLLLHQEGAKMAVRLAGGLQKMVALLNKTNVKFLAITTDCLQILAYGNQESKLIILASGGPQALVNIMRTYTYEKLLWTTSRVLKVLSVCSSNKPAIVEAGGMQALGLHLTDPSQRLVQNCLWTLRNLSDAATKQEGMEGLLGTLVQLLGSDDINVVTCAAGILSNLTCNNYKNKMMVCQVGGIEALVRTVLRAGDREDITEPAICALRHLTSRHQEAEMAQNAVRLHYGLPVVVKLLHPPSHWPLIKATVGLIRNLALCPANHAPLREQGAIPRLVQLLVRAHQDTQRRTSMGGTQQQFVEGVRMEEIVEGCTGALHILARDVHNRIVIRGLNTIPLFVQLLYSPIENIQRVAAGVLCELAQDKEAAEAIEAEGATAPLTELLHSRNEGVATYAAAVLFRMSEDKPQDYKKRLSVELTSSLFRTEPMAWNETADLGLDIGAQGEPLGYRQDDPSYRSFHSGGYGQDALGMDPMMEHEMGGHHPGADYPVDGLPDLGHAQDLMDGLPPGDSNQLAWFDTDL


These binders were tested against T1, B-cat-Halo (assay: cell-based or functional assay).

NanoBRET Abs IC50 [µM]	Binder
25.2	Ac-[αAllylPro]D[tBuAla][B5(22)]D[(NdiMeButC)GAbu]AAFL[PyrS2][3Thi][Bta]Q-NH2 (staple 1-4, 4-11) [I-2243]
21.4	Ac-[αAllylPro]D[tBuAla][B5(3)]D[(PfBz)GA]AAFL[PyrS2(4)][3Thi][Bta]Q-NH2 (staple 1-4, 4-11; reading uncertain) [I-2242]
> 20	Ac-[αAllylPro]D[tBuAla][B5(22)]D[(MePipAc)GA]AAFL[PyrS2][3Thi][Bta]Q-NH2 (staple 1-4, 4-11) [I-2240]
17.7	Ac-[αAllylPro]D[tBuAla][B5(22)]D[(PfPhAc)GA]AAFL[PyrS2][3Thi][Bta]Q-NH2 (staple 1-4, 4-11) [I-2241]
31.9	Ac-[αAllylPro]D[tBuAla][B5(22)]D[(MorphAc)GA]AAFL[PyrS2][3Thi][Bta]Q-NH2 (staple 1-4, 4-11) [I-2239]

The next lines start with the binder.

Binder	NanoBRET Abs IC50 [µM]
Ac-[αAllylPro]D[tBuAla][B5(22)]D[(4CF3PhAc)GA]AAFL[PyrS2][3Thi][Bta]Q-NH2 (staple 1-4, 4-11) [I-2236]	15.3
Ac-[αAllylPro]D[tBuAla][B5(3)]D[Phe(3-COOH)]AAFL[PyrS2″][3Thi][Phe(3-Cl)]Q-NH2 (staple 1-4, 4-11) [I-2224]	14.2
Ac-[αAllylPro]D[tBuAla][B5(3)]D[Phe(3-COOH)]AAFL[PyrS2″][2F3MeF][Phe(3-Cl)]S-NH2 (staple 1-4, 4-11) [I-2226]	10.6
Ac-[αAllylPro]D[tBuAla][B5(22)]D[(4AcMePip)GA]AAFL[PyrS2][3Thi][Bta]Q-NH2 (staple 1-4, 4-11) [I-2235]	> 20
Ac-[αAllylPro]D[tBuAla][B5(3)]D[(NdiMeButC)GA]AAFL[PyrS2″][3Thi][Bta]Q-NH2 (staple 1-4, 4-11) [I-2233]	> 20
Ac-[αAllylPro]D[tBuAla][B5(3)]D[Phe(3-COOH)]QAFL[PyrS2″][2F3MeF][Phe(4-Cl)]A-NH2 (staple 1-4, 4-11) [I-2223]	9
Ac-[αAllylPro]D[tBuAla][B5(3)]D[Phe(3-COOH)]QAFV[PyrS2(4)][3Thi][Phe(3-Cl)]A-NH2 (staple 1-4, 4-11; reading uncertain) [I-2225]	7.8
Ac-[αAllylPro]D[tBuAla][B5(3)]D[Phe(3-COOH)]AAFL[PyrS2″][2F3MeF][Phe(4-Cl)]S-NH2 (staple 1-4, 4-11) [I-2222]	11.7
Ac-[αAllylPro]D[tBuAla][B5(22)]D[(Pic)GA]AAFL[PyrS2][3Thi][Bta]Q-NH2 (staple 1-4, 4-11) [I-2237]	24.3
